Data published in patent US20120316071A1 (published 2012).

What was measured:
[1] = molecular target: T1, Recombinant Human DLL4 (delta-like protein 4) (human, UniProt Q9NR61 27-529); assay: 96-well plate ECL (MSD) binding assay on coated DLL4, 10 nM Fab
T1 construct: Bought recombinant human DLL4 (R&D Systems Cat#1506-D4/CF), coated on the plate; also called rHuman DLL4; Delta-like 4

[2] = molecular target: T1, Recombinant Human DLL4 (delta-like …); assay: ELISA on coated DLL4, 100 nM Fab

B1: Fab VH1-46_IGHD6-6*01_IGHJ1*01 S102A/S103P/S104F/H111F/I51S/N52L/S54T/G56H (APFF SLTH) & L6_IGKJ1*01 (Fab, V domains shown)
VH: QVQLVQSGAEVKKPGASVKVSCKASGYTFTSYYMHWVRQAPGQGLEWMGISLPTGHSTSYAQKFQGRVTMTRDTSTSTVYMELSSLRSEDTAVYYCAREEYAPFSAEYFQFWGQGTLVTVSS
VL: not shown
notes: Fab made in E. coli; CH1 with tags and kappa CL are not included
ECL signal [1]: 135000 | ELISA signal [2]: 0.786
